Laboratory results taken from patent US20030068675, “Position dependent recognition of GNN nucleotide triplets by zinc fingers” (published 2003).
Changes are numbered by the printed parent chain.

Tests used:
Test in all cases: EMSA
Settings in all cases: tags: MBP fusion
ZFP SBS#767 = ZFP SBS#767 (synthetic, UniProt P08047)
Summary of the method: (§1)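 Purified ZFP was titrated against labeled double-stranded target (1 nM or lower, at least 10-fold below expected Kd) carrying the natural binding site with flanks. Binding buffer was 10 mM Tris pH 7.5, 100 mM KCl, 1 mM MgCl2, 0.1 mM ZnCl2, 5 mM DTT, 10% glycerol, 0.02% BSA, with equilibration for at least 45 min. Bound and free target were separated on a 10% polyacrylamide gel.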

ZFP SBS#799 = ZFP SBS#799 (synthetic)
Summary of the method: as §1

ZFP SBS#798 = ZFP SBS#798 (synthetic, UniProt P08047)
Summary of the method: as §1

ZFP SBS#768 = ZFP SBS#768 (synthetic)
Summary of the method: as §1

ZFP SBS#797 = target: T1, ZFP SBS#797 (synthetic)
T1 chain: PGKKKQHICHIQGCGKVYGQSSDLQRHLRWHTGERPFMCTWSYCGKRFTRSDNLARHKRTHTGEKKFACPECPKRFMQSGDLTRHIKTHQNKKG
Summary of the method: as §1

ZFP SBS#764 = ZFP SBS#764 (synthetic)
Summary of the method: as §1

ZFP SBS#837 = target: T2, ZFP SBS#837 (synthetic)
T2 chain: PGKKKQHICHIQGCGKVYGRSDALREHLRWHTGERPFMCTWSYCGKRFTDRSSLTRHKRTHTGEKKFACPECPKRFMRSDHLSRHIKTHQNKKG
Summary of the method: as §1

ZFP SBS#849 = target: T3, ZFP SBS#849 (synthetic)
T3 chain: T2 chain with S83T, R84Q
Summary of the method: as §1

ZFP SBS#838 = target: T4, ZFP SBS#838 (synthetic)
T4 chain: T2 chain with S83T, R84A
Summary of the method: as §1

ZFP SBS#845 = ZFP SBS#845 (synthetic)
Summary of the method: as §1

ZFP SBS#851 = target: T5, ZFP SBS#851 (synthetic)
T5 chain: T1 chain with D23N, S51R, N53V, A55M, R56N, Q78R, S79L, G80H, D81N, T83Q
Summary of the method: as §1

ZFP SBS#846 = target: T6, ZFP SBS#846 (synthetic)
T6 chain: T1 chain with D23N, S51R, N53V, A55M, R56N, Q78R, G80D, D81N, T83Q
Summary of the method: as §1

ZFP SBS#844 = ZFP SBS#844 (synthetic)
Summary of the method: as §1

ZFP SBS#685 = ZFP SBS#685 (synthetic)
Summary of the method: as §1

ZFP SBS#682 = ZFP SBS#682 (synthetic)
Summary of the method: as §1

ZFP SBS#683 = target: T7, ZFP SBS#683 (synthetic)
T7 chain: T1 chain with S22G, D23H, Q25A, R50Q, D52G, N53S, A55T, G80S, T83S
Summary of the method: as §1

ZFP SBS#684 = ZFP SBS#684 (synthetic)
Summary of the method: as §1

ZFP SBS#681 = ZFP SBS#681 (synthetic)
Summary of the method: as §1

ZFP SBS#832 = target: T8, ZFP SBS#832 (synthetic)
T8 chain: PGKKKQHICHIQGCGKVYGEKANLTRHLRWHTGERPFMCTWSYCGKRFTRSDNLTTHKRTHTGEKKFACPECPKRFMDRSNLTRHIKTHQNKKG
Summary of the method: as §1

ZFP SBS#833 = target: T9, ZFP SBS#833 (synthetic)
T9 chain: T8 chain with T56K
Summary of the method: as §1

ZFP SBS#834 = target: T10, ZFP SBS#834 (synthetic)
T10 chain: T8 chain with N53H
Summary of the method: as §1

ZFP SBS#805 = target: T11, ZFP SBS#805 (synthetic)
T11 chain: T1 chain with S21R, D23A, Q25A, N53E, A55Q, D81S
Summary of the method: as §1

ZFP SBS#775 = target: T12, ZFP SBS#775 (synthetic)
T12 chain: T1 chain with S22G, D23A, Q25T, N53E, A55Q
Summary of the method: as §1

ZFP SBS#773 = ZFP SBS#773 (synthetic)
Summary of the method: as §1

ZFP SBS#774 = target: T13, ZFP SBS#774 (synthetic)
T13 chain: T1 chain with S21R, D23A, Q25A, N53E, A55Q
Summary of the method: as §1

ZFP SBS#766 = target: T14, ZFP SBS#766 (synthetic)
T14 chain: T8 chain with K21R, A22G, N23T, T25A, T55A, T56R, N81D
Summary of the method: as §1

ZFP SBS#765 = target: T15, ZFP SBS#765 (synthetic)
T15 chain: T1 chain with Q20E, S21R, S22G, D23T, Q25A, Q78E, S79R, D81T, T83A
Summary of the method: as §1

ZFP SBS#763 = ZFP SBS#763 (synthetic)
Summary of the method: as §1

ZFP SBS#840 = target: T16, ZFP SBS#840 (synthetic)
T16 chain: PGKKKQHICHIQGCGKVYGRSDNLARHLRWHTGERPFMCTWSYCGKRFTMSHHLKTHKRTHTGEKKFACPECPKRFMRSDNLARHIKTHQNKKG
Summary of the method: as §1

ZFP SBS#839 = target: T17, ZFP SBS#839 (synthetic)
T17 chain: T16 chain with M50T, H52D, K55A, T56S
Summary of the method: as §1

ZFP SBS#841 = target: T18, ZFP SBS#841 (synthetic)
T18 chain: T16 chain with M50Q, H52S, K55A, T56S
Summary of the method: as §1

ZFP SBS#770 = target: T19, ZFP SBS#770 (synthetic)
T19 chain: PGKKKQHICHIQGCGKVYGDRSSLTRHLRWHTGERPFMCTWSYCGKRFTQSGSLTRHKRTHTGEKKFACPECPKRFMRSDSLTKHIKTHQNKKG
Summary of the method: as §1

ZFP SBS#800 = target: T20, ZFP SBS#800 (synthetic)
T20 chain: T19 chain with D20E, S22G, S23T, T25A
Summary of the method: as §1

ZFP SBS#830 = ZFP SBS#830 (synthetic)
Summary of the method: as §1

ZFP SBS#831 = ZFP SBS#831 (synthetic)
Summary of the method: as §1

ZFP SBS#253 = ZFP SBS#253 (synthetic)
Summary of the method: as §1

Chain of ZFP SBS#845 (synthetic) (chain, as listed by the source): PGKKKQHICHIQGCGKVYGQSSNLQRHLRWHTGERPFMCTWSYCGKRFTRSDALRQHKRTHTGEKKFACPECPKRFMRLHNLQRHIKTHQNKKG
Chain of ZFP SBS#844 (synthetic) (chain, as listed by the source): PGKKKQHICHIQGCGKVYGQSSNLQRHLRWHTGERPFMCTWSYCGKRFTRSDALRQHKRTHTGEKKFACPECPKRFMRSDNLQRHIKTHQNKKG
Chain of ZFP SBS#685 (synthetic) (chain, as listed by the source): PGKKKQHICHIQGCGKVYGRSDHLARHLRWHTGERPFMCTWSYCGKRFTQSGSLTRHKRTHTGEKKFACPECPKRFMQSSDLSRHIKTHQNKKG
Chain of ZFP SBS#684 (synthetic) (chain, as listed by the source): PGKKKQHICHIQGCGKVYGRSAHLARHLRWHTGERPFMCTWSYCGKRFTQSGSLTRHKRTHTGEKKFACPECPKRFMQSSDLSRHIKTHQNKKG
Chain of ZFP SBS#767 (P08047 other isoform, or with tags, fused parts or gaps): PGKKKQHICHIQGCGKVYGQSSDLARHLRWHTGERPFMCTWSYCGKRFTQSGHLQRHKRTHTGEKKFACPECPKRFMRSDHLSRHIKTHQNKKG
Chain of ZFP SBS#831 (synthetic) (chain, as listed by the source): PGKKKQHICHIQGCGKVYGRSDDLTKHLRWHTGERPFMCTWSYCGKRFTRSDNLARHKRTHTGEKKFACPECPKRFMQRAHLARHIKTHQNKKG
Chain of ZFP SBS#768 (synthetic) (chain, as listed by the source): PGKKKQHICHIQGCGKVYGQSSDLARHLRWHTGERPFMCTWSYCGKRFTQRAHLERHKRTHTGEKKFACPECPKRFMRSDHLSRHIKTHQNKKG
Chain of ZFP SBS#799 (synthetic) (chain, as listed by the source): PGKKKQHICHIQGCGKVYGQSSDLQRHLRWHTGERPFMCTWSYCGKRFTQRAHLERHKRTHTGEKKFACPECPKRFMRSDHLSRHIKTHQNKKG
Chain of ZFP SBS#681 (synthetic) (chain, as listed by the source): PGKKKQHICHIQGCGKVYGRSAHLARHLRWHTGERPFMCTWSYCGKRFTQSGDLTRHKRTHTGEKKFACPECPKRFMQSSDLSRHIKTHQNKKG
Chain of ZFP SBS#798 (P08047 other isoform, or with tags, fused parts or gaps): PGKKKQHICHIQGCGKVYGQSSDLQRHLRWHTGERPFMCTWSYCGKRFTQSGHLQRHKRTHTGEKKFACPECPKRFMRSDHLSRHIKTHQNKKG
Chain of ZFP SBS#763 (synthetic) (chain, as listed by the source): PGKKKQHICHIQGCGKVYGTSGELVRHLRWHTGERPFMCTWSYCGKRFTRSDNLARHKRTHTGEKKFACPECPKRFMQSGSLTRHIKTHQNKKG
Chain of ZFP SBS#830 (synthetic) (chain, as listed by the source): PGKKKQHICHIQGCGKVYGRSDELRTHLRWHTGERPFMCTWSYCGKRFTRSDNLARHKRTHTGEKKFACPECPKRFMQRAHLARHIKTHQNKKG

B1: GGGGGAGCTG (dsDNA)
DNA 1: GGGGGAGCTG
DNA 2: CAGCTCCCCC
Kd (ZFP SBS#767): 335 nM | Kd (ZFP SBS#799): 1.85 nM | Kd (ZFP SBS#798): 3 nM | Kd (ZFP SBS#768): 2000 nM

B2: GCAGAGGCTG (dsDNA)
DNA 1: GCAGAGGCTG
DNA 2: CAGCCTCTGC
Kd (ZFP SBS#797): 17.5 nM | Kd (ZFP SBS#764): 255 nM

B3: GGGGCCCTGG (dsDNA)
DNA 1: GGGGCCCTGG
DNA 2: CCAGGGCCCC
Kd (ZFP SBS#837): 222 nM | Kd (ZFP SBS#849): 29.1 nM | Kd (ZFP SBS#838): 300 nM

B4: GAGATGGATC (dsDNA)
DNA 1: GAGATGGATC
DNA 2: GATCCATCTC
Kd (ZFP SBS#845): 112 nM | Kd (ZFP SBS#851): 74 nM | Kd (ZFP SBS#846): 890 nM | Kd (ZFP SBS#844): 444 nM

B5: GCTGCAGGAG (dsDNA)
DNA 1: GCTGCAGGAG
DNA 2: CTCCTGCAGC
Kd (ZFP SBS#685): 150 nM | Kd (ZFP SBS#682): 90 nM | Kd (ZFP SBS#683): 500 nM | Kd (ZFP SBS#684): 850 nM | Kd (ZFP SBS#681): 3000 nM

B6: GACTAGGACC (dsDNA)
DNA 1: GACTAGGACC
DNA 2: GGTCCTAGTC
Kd (ZFP SBS#832): 408 nM | Kd (ZFP SBS#833): 136 nM | Kd (ZFP SBS#834): 186 nM

B7: GCAGCGGTAG (dsDNA)
DNA 1: GCAGCGGTAG
DNA 2: CTACCGCTGC
Kd (ZFP SBS#805): 500 nM | Kd (ZFP SBS#775): 265 nM | Kd (ZFP SBS#773): 1250 nM | Kd (ZFP SBS#774): 258 nM

B8: GCCGAGGCCG (dsDNA)
DNA 1: GCCGAGGCCG
DNA 2: CGGCCTCGGC
Kd (ZFP SBS#766): 262 nM | Kd (ZFP SBS#765): 262 nM

B9: GCAGAGGCTC (dsDNA)
DNA 1: GCAGAGGCTC
DNA 2: GAGCCTCTGC
Kd (ZFP SBS#763): 275 nM

B10: GAGTGTGAGG (dsDNA)
DNA 1: GAGTGTGAGG
DNA 2: CCTCACACTC
Kd (ZFP SBS#840): 625 nM | Kd (ZFP SBS#839): 625 nM | Kd (ZFP SBS#841): 300 nM

B11: TTGGCAGCCT (dsDNA)
DNA 1: TTGGCAGCCT
DNA 2: AGGCTGCCAA
Kd (ZFP SBS#770): 325 nM | Kd (ZFP SBS#800): 400 nM

B12: GGAGAGTCGG (dsDNA)
DNA 1: GGAGAGTCGG
DNA 2: CCGACTCTCC
Kd (ZFP SBS#830): 683 nM | Kd (ZFP SBS#831): 700 nM

B13: GGATGGGGG (dsDNA)
DNA 1: GGATGGGGG
DNA 2: CCCCCATCC
Kd (ZFP SBS#253): 0.75 nM
